Experimental data taken from paper PMC3744425.

Target: Ubiquitin-7-amino-4-methylcoumarin (human) (UniProt P0CG48)

Row | Substance | Kapp (apparent kcat/Km) of Ub-AMC hydrolysis, far from saturating conditions [M⁻¹ s⁻¹]
1 | TYMV PRO E759G/N760G mutant, N-terminally 6-histidine tagged (enzyme) | 2060
2 | TYMV PRO I847A mutant, N-terminally 6-histidine tagged (enzyme) | 215
3 | TYMV PRO I847D mutant, N-terminally 6-histidine tagged (enzyme) | 14
4 | TYMV PRO L732A/L765A mutant, N-terminally 6-histidine tagged (enzyme) | 2510
5 | Turnip yellow mosaic virus (TYMV) PRO domain, N-terminally 6-histidine tagged, wild type (enzyme) | 2650
